In series [1] the target is Drosophila melanogaster septin hexamers composed of His6-DSep1, DSep2, Pnut-StrepII (Drosophila melanogaster) (UniProt P42207). The series can be described thus: atomic force microscopy on supported lipid bilayers; 12, 24 or 60 nM hexamers for 15 min at 19°C on silica-supported bilayers of 80% PC and 20% PS in polymerization buffer; mostly fixed with 1% glutaraldehyde, also unfixed.

The target of series [2] is Drosophila melanogaster septin hexamers composed of His6-DSep1, mEGFP-DSep2, and Pnut-StrepII (Drosophila melanogaster) (UniProt P42207). The series can be described thus: TIRF microscopy of bundles formed in solution; mEGFP-tagged hexamers diluted from 300 mM KCl into polymerization buffer with 50 mM KCl (20 mM imidazole pH 7.4), 100, 200, 500 nM; crowded onto a neutral PC bilayer with 0.1 wt-% methylcellulose; 20°C.

Series [3] deals with the molecule itself. The series can be described thus: scanning transmission electron microscopy (STEM) with mass-per-length mapping; septins preassembled for 1 hr at 20°C in solution at 50-500 nM, no membrane; TMV rods as mass standard.

Turning to “Drosophila melanogaster septin hexamers composed of His6-DSep1, DSep2, Pnut-StrepII (from UniProt P42207 1-361; P54359 1-419; P40797 1-539) (complex)”, the threshold concentration for polymerization on negatively charged membranes in series [1] is less than 12 nM. “Drosophila melanogaster septin hexamers composed of His6-DSep1, mEGFP-DSep2, and Pnut-StrepII (from UniProt P42207 1-361; P54359 1-419; P40797 1-539) (complex)” showed a threshold concentration for polymerization in solution in series [2] of 200 nM.

B1: Budding yeast septin octamers composed of Cdc3, Cdc10, Cdc11, and His6-Cdc12 (complex, budding yeast (S. cerevisiae))
chain 1: MSLKEEQVSIKQDPEQEERQHDQFNDVQIKQESQDHDGVDSQYTNGTQNDDSERFEAAESDVKVEPGLGMGITSSQSEKGQVLPDQPEIKFIRRQINGYVGFANLPKQWHRRSIKNGFSFNLLCVGPDGIGKTTLMKTLFNNDDIEANLVKDYEEELANDQEEEEGQGEGHENQSQEQRHKVKIKSYESVIEENGVKLNLNVIDTEGFGDFLNNDQKSWDPIIKEIDSRFDQYLDAENKINRHSINDKRIHACLYFIEPTGHYLKPLDLKFMQSVYEKCNLIPVIAKSDILTDEEILSFKKTIMNQLIQSNIELFKPPIYSNDDAENSHLSERLFSSLPYAVIGSNDIVENYSGNQVRGRSYPWGVIEVDNDNHSDFNLLKNLLIKQFMEELKERTSKILYENYRSSKLAKLGIKQDNSVFKEFDPISKQQEEKTLHEAKLAKLEIEMKTVFQQKVSEKEKKLQKSETELFARHKEMKEKLTKQLKALEDKKKQLELSINSASPNVNHSPVPTKKKGFLR
chain 2: MDPLSSVQPASYVGFDTITNQIEHRLLKKGFQFNIMVVGQSGLGKSTLINTLFASHLIDSATGDDISALPVTKTTEMKISTHTLVEDRVRLNINVIDTPGFGDFIDNSKAWEPIVKYIKEQHSQYLRKELTAQRERFITDTRVHAILYFLQPNGKELSRLDVEALKRLTEIANVIPVIGKSDTLTLDERTEFRELIQNEFEKYNFKIYPYDSEELTDEELELNRSVRSIIPFAVVGSENEIEINGETFRGRKTRWSAINVEDINQCDFVYLREFLIRTHLQDLIETTSYIHYEGFRARQLIALKENANSRSSAHMSSNAIQR
chain 3: MSGIIDASSALRKRKHLKRGITFTVMIVGQSGSGRSTFINTLCGQQVVDTSTTILLPTDTSTEIDLQLREETVELEDDEGVKIQLNIIDTPGFGDSLDNSPSFEIISDYIRHQYDEILLEESRVRRNPRFKDGRVHCCLYLINPTGHGLKEIDVEFIRQLGSLVNIIPVISKSDSLTRDELKLNKKLIMEDIDRWNLPIYNFPFDEDEISDEDYETNMYLRTLLPFAIIGSNEVYEMGGDVGTIRGRKYPWGILDVEDSSISDFVILRNALLISHLHDLKNYTHEILYERYRTEALSGESVAAESIRPNLTKLNGSSSSSTTTRRNTNPFKQSNNINNDVLNPASDMHGQSTGENNETYMTREEQIRLEEERLKAFEERVQQELLLKRQELLQREKELREIEARLEKEAKIKQEE
chain 4: MSAATATAAPVPPPVGISNLPNQRYKIVNEEGGTFTVMLCGESGLGKTTFINTLFQTVLKRADGQQHRQEPIRKTVEIDITRALLEEKHFELRVNVIDTPGFGDNVNNNKAWQPLVDFIDDQHDSYMRQEQQPYRTKKFDLRVHAVLYFIRPTGHGLKPIDIETMKRLSTRANLIPVIAKADTLTAQELQQFKSRIRQVIEAQEIRIFTPPLDADSKEDAKSGSNPDSAAVEHARQLIEAMPFAIVGSEKKFDNGQGTQVVARKYPWGLVEIENDSHCDFRKLRALLLRTYLLDLISTTQEMHYETYRRLRLEGHENTGEGNEDFTLPAIAPARKLSHNPRYKEEENALKKYFTDQVKAEEQRFRQWEQNIVNERIRLNGDLEEIQGKVKKLEEQVKSLQVKKSHLK
notes: Cdc3, budding yeast septin; Cdc10, budding yeast septin; Cdc11, budding yeast septin; Cdc12, budding yeast septin; Two copies of each chain follow from the word octamer with four named subunits; also called yeast septins; budding yeast septins; source: purified as described (Bertin et al., 2008); copies: 2 + 2 + 2 + 2
For B1, the binding result in series [3] is “binds”.

The values are drawn from publication PMC8099429, “Membrane binding controls ordered self-assembly of animal septins” (eLife, 2021).
